# According to article PMC11784022, “An unusual activity of mycobacterial MutT1 Nudix hydrolase domain as a protein phosphatase regulates nucleoside diphosphate kinase function” (Journal of Bacteriology, 2024):
# Target: the molecule itself
# Assay: SDS-PAGE of samples not heated in sample buffer; MsmNDK-Pi (1 µg) in kinase buffer (50 mM Tris-HCl pH 8.0, 50 mM KCl, 10 mM MgCl2), 30°C, mixed with SDS-PAGE sample buffer without heating, 12% SDS-PAGE, Coomassie stain
protein,measurement,value
"Mycobacterium smegmatis nucleoside diphosphate kinase (MsmNDK) (enzyme, Mycobacterium smegmatis mc2155, UniProt O85501 1-139, looked up, Nucleoside diphosphate kinase of Mycobacterium smegmatis mc2155, locus MSMEG_4627; ORF amplified from genomic DNA and cloned into pProEx-Htb between NcoI and HindIII; also called MsmNDK-Pi; source: E. coli M15, purified (Ni-NTA, Superdex-75)) MTERTLVLIKPDGVKRQLVGEILSRIERKGLTLAALELKNVSDDLARQHYAEHADKPFFGSLLEFITSGPLVAAIVEGPRAVAAFRQIAGGTDPVEKAVPGTIRGDFALITQDNLVHGSDSPESAAREIALWFPGEATA",binding result,binds
